The text below walks through data of EP4789728A2 (Serpin Pharma, LLC, dated 2026).

In one assay the target is TMPRSS2 (UniProt O15393 106-492, limits assumed). As to the kind of experiment: cell-based or functional assay.
Assay [1] concerns the target T1, recombinant LRP1-FC fusion protein (Cluster II) (UniProt Q07954 805-1184, limits assumed).
T1 construct: domain: Cluster II; Captured on protein G Dynabeads; not shown: Fc part
T1 sequence (looked up): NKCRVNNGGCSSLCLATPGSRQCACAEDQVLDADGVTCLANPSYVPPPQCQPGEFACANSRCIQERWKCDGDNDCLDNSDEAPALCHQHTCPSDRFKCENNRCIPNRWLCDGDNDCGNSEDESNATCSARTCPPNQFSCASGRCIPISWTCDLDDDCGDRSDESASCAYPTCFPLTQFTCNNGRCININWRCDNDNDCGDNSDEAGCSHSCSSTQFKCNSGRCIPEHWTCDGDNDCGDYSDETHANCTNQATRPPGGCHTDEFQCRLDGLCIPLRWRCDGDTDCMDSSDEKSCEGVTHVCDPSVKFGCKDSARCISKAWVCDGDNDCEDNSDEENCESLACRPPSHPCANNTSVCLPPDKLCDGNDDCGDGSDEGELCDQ
Nature of the assay: Cy5.5-labelled peptide on LRP1-FC (Cluster II) protein G beads, flow cytometry. (A flow cytometer gives signals particle by particle.)

The target in assay [2] is T2, Recombinant LRP1 (Cluster II) (UniProt Q07954 805-1184, limits assumed).
T2 construct: domain: Cluster II; Coated on the ELISA plate
T2 sequence (looked up): T1 sequence (looked up)
As to the kind of experiment: ELISA, plate-bound recombinant LRP1 (Cluster II), increasing concentrations of biotinylated peptide, streptavidin HRP.

No end group written: not given here.

TMPRSS2, sequence (O15393 106-492 limits assumed): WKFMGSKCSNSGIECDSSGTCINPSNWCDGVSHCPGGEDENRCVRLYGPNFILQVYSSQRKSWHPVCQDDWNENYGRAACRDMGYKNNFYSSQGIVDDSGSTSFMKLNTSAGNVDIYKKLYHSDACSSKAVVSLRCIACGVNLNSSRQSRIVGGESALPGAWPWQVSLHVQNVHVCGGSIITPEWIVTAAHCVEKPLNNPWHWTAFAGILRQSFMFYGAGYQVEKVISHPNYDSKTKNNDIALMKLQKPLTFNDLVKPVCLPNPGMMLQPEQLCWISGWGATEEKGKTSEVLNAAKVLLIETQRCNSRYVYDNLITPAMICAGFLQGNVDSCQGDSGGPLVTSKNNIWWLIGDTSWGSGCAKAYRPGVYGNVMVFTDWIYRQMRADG

B1: SP163M (peptide)
peptide: VKFNKPFVFLXIEQNTK
modifications: not fully specified; Norleucine (Nle) in place of the methionine (VKFNKPFVFL[Nle]IEQNTK); N-terminus acetylated; C-terminus amidated; biotinylated in the ELISA (Figure 3); labelled with Cy5.5 in the bead assay (Figure 4)
Regarding B1, in the assay with TMPRSS2, the “IC50 of inhibition of TMPRSS2 activity” value was 1.12 µg/mL.

B2: SP16AALRP1 (peptide)
peptide: VKFNKAAAAAAIEQNTK
modifications: not fully specified
notes: also called SP16AALRP1 peptide
Take B2: the binding result in assay [1] is “no binding (tested: 1µg/ml)”.

B3: SP34 (Scrambled Core) (peptide)
peptide: FPKMVPQFNTELKIFPEVNIK
modifications: also: biotinylated in ELISA, site not given here, labelled with Cy5.5 in bead assay, site not given here
notes: Contains the amino acids found in SP16 in scrambled orientation; also called scrambled control; scrambled control SP34 peptide
For B3, the values for the binding result in assay [2] and in assay [1] were “no binding” and “no binding (tested: 1µg/ml)”, respectively.
